Article PMC6829457, “Light-Regulation of Tryptophan Synthase by Combining Protein Design and Enzymology” (International Journal of Molecular Sciences, 2019)

Biological target: T1, wild-type TrpB, beta subunit of tryptophan synthase from Salmonella typhimurium (Salmonella typhimurium, UniProt P0A2K1 1-397)
T1 construct: TrpB (tryptophan synthase beta chain), Salmonella typhimurium; it carries pyridoxal phosphate as internal aldimine on bK87
T1 sequence: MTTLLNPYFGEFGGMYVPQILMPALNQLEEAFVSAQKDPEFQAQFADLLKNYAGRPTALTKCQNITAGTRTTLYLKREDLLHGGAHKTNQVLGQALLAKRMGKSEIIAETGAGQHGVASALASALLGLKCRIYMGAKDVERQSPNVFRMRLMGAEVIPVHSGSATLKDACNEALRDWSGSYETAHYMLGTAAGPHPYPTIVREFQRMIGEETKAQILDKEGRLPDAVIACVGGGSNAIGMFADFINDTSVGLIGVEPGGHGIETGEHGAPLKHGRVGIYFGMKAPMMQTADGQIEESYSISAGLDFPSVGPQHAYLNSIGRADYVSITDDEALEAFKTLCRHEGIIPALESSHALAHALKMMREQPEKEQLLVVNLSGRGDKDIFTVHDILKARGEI
Assay: SEC
Settings: both partners purified

B1: wild-type TrpA, alpha subunit of tryptophan synthase from Salmonella typhimurium (enzyme, UniProt P00929 1-268, looked up)
chain: MERYENLFAQLNDRREGAFVPFVTLGDPGIEQSLKIIDTLIDAGADALELGVPFSDPLADGPTIQNANLRAFAAGVTPAQCFEMLALIREKHPTIPIGLLMYANLVFNNGIDAFYARCEQVGVDSVLVADVPVEESAPFRQAALRHNIAPIFICPPNADDDLLRQVASYGRGYTYLLSRSGVTGAENRGALPLHHLIEKLKEYHAAPALQGFGISSPEQVSAAVRAGAAGAISGSAIVKIIEKNLASPKQMLAELRSFVSAMKAASRA
notes: TrpA (tryptophan synthase alpha chain), Salmonella typhimurium
  binding result: binds
